19 sequences from the DeepSol protein solubility set can be followed below.

This data set is described as follows: soluble on expression in E. coli; label from the status in PepcDB or PDB records.
In the case of “MRKMNLIVAMDAEGGIGKNGVLPWRIKKDMQYFASVTKNVSDQSKRNAVLMGRKCWESIPVTRRPLAGRLNIVLSRQLPAQKSDDYIVVNSLEAAMKLLSEPPFVDSIETIWNIGGAEIYDLALRENLVDEIHLTRIFKNFEADVHLKSLDFSKMEKVQNAEVSSENSEIFEENGLKFEFCKWKVVENH”, the “soluble on expression in E. coli” value was “not soluble”. Regarding “MRKNILIFSLIAFSLTIHCSEIRVQRSLEESITKDYDQDGVYSSYEKALRRTQESVYVTLPEKRGYWYTMLDRIKAEEKELIPDEKVRMRKR”, the “soluble on expression in E. coli” value was “not soluble”. To “MRKTKIVCTIGPASESEEMIEKLINAGMNVARLNFSHGSHEEHKGRIDTIRKVAKRLDKIVAILLDTKGPEIRTHNMKDGIIELERGNEVIVSMNEVEGTPEKFSVTYENLINDVQVGSYILLDDGLIELQVKDIDHAKKEVKCDILNSGELKNKKGVNLPGVRVSLPGITEKDAEDIRFGIKENVDFIAASFVRRPSDVLEIREILEEQKANISVFPKIENQEGIDNIAEILEVSDGLMVARGDMGVEIPPEKVPMVQKDLIRQCNKLGKPVITATQMLDSMQRNPRATRAEASDVANAIYDGTDAVMLSGETAAGLYPEEAVKTMRNIAVSAEAAQDYKKLLSDRTKLVETSLVNAIGISVAHTALNLNVKAIVAATESGSTARTISKYRPHSDIIAVTPSEETARQCSIVWGVQPVVKKGRKSTDALLNNAVATAVETGRVSNGDLIIITAGVPTGETGTTNMMKIHLVGDEIANGQGIGRGSVVGTTLVAETVKDLEGKDLSDKVIVTNSIDETFVPYVEKALGLITEENGITSPSAIVGLEKGIPTVVGVEKAVKNISNNMLVTIDAAQGKIFEGYANVL” belongs “not soluble”; to “MRKTLIALMFAAALPTVAMAMPDGGPRHDGPHHRGDAPFHQLDLSRDQRQQIGKLMGEQMQQRRDITERYLSKLPATDQKAMKDELQANRDKTDSAVRKLLTADQQKKFDELQKERAAKKAEWQEFQAWKAEKGAKAQLEHHHHHH”, “soluble”; to “MRKVKTDNSDLIEYVNTVKELKNHIPIEEYRNEYRKLRSDDIPLVKAQKFKSAHTEVRRLEKKRESLIEYFIDELNPISSSKANTSARSTGNLDLFNERVLYRKAISEKSDEEIVALVIKQRTEAAVEFQRSIEQSLEQLSRISSEFEPSNQKRRKMSL”, “soluble”.

For the sequence “MRKWRIEDSEELYNITGWGTSYFSINDAGHVVVTPRRDGVTVDLKELVDELQLRDVASPMLLRFPDILDNRIEKMSSCFKQAAEEYGYKAENFIIYPIKVNQMRPVVEEIISHGKKFNLGLEAGSKPELHAVIAVNTDSDSLIVCNGYKDESYIELALLAQKMGKRIFLVVEKMNELKLIAKMAKQLNVQPNIGIRIKLASSGSGKWEESGGDASKFGLTSSELLEALDFMESKGLKDCLKLIHFHIGSQVTKIRRIKTALREASQFYVQLHSMGFNVEFVDIGGGLGVDYDGTRSSNSEGSVNYSIQEYVNDSISTLVDVSDKNGIPHPNIITESGRALTAHHSVLIFEVLETATLPEWDDEEEIAPDAHELVQELYSIWDSLNQNKMLEAWHDAQQIREEALDLFSHGIVDLKTRAQIERLYWSITREINQIAGGLKHAPDEFRGLSKLLADKYFCNFSLFQSLPDSWAIDQIFPIMPIQRLDEKPERSATLQDITCDSDGKIANFISTRNVAHYLPVHSLKKTEPYYLAVFLVGAYQEILGDMHNLFGDTNAVHVSVNEKGYNIEQIIDGETVAEVLDYVQYNPKKLVRTLETWVTKSVKEGKISLEEGKEFLSNYRSGLYGYTYLE”, the “soluble on expression in E. coli” value was “not soluble”. For the sequence “MRLHARSPRVESGRYGWLLDSVVDERRRHRMSFLRLGRNGMSEFERPTDHSLGRCGQVLCVTRGVSSRAPRRSAETGVSVATPATVAAHISVWQYEAMSAYAALAEPHRRQILDLLREGERPAGELVERIALSQPGVSKHLKVLREAGLVVVRADGKQRLYALRPEPLAEVDRWLEPYRAYWSRRLDALERHLEENP”, the “soluble on expression in E. coli” value is on record as “not soluble”. As for “MRLIKVIITSQKEYSMKKLLSLSAITLSVLAPSAFAAQEVNVYSYRQPFLIEPMFAEFTKETGIKVNVKFAKEGIAEKLAQEGEYSPADVILTSEFSRLFELTEKGLTQPLDSKVIEENIPAQYRDSGDEWFALTQRTRSVYSSRDRLGKLGDDFDYMDLAKPEFKGKICTRSGKHPYNIALVASIIANHGEAEAKAWLEGVKANLARKPQGNDRDQVRAIKEGLCDVSLGNSYYLGAMLNDQEQKSWAEAVYINFPGQNVQGTHVNVSGMAMAKYSPNRENAQKLMEFLTGETAQKMYAEVNYEYPVKPGVQRSALVESWGEFKADSLPLEKIADNNAAAIKLIDEVKFDL”, the entry is “not soluble”; as for “MRLLLAAPHSGAGKTTVSLALLLALRARGLRVQPFKVGPDYIDPTHLEKAAARRPYNLDGFFLDETGLLALFRHGARGADFALIEGVMGLFDGKDPRGEVGSTAQVARLLKAPVALVVDAKGMAGSIAPLALGFRDFHPGVRVVGVFANRVGSERHAEILKEALKAVGLPLLGWLPQDPALALPERHLGLVLAGEVAPPLEALRRAFRVDLEGVLRLAASAPPLPEARPFLPPRRPPRARVAYAWDKAFSFYYPEALELLEALGAELVPFSPLEDEALPKAHALLLGGGYPELFAERLSANVALREAIRRFPGPIVAECGGYMYLSQGLWVGERFFPMVGLVPGEARMAERPVLGYREVEALRDSPVARKGQAFKGHEFHYARLPASPSPAWRRLGGEEVEGYTDGRVLASFVHLYLPAKPEGVERLLGLASRGKAAGAS”, “soluble”; as for “MRLLVADDHPLFRLGLKAALEAEGLEVVAEAGTGEEALVQALEKAPDAVLLDLRMPGMDGLTCARRLREMGYRGLVILLTTYQEPALLLEAYKAGADAYLSKELSAPELKRRLLRIRQGEERLTAPDIPALTPREEEVLRLLAEGLSTKEIARALRLSPETVRSHLESLYAKLEARNRVEALSRARSLGLLP”, “soluble”.

With “MRLRKKPWARPALEACSFFVINPTEYKGKWREVFGNSNEIWLELGCGKGGFISKLASTNPDKNFIAVDIKDEVLALAMKKIENEYALIGAETKNIRLMAHEIMLIHRMLDENDQIGRIFINFCNPWPKNRHKARRLTHPNQLNQYRTFLAPNGQIWFKTDDTMLFQDSIKYFEQCNFNIVYLTEDLHASGFEGNIETEHERMFLEQGCKIKFLIAEKK”, the “soluble on expression in E. coli” value is recorded as “soluble”. To “MRLSRSSHHKTLDEYDFSFQPDLDPRKVRDLATLSFVEGRANAALLGVLVADEVGYQPLERAEARLVFQVISKRYEKGSIILASNKTFSEWGQVGPGFGDEVLATALLGRLLDHCDVISINGPGYRLRNRLKAIERENDVALEHHHHHH” belongs “not soluble”; to “MRMIPIKIWAADVDVSIGYRAPRAASNTLGIFSYSAEYTLCTLPISNMTSQSVMFKGGLPADCTCPICEQALRDPIKLNCDHHYCRQCFENENRTPGCAACQTIIQPELCQHDRAKQKQILALPVVCTFESSGCPWDGQLGTLHDHLSECTFKSSLKCEKCGRQFAKNDLEKHRAKCELNRAVCSFCNKTIRDSDRERHPKTCPQVIISCPFQCGLTDRPRLEIEAHCPSCPNVDNVCPFVPYGCTFAGGKESIQQHLSDEPVRHLMYLCDEITDLKGTYELMERDMGSFNDRQTRILSAAETCTEMFGPQLIWKIDKLQQRTNEAKSGADTTIFSVPFMSHRFGYKMMACACLFGDGSSAGKSISLYVLLLKGEFDPTLEWPFHRAIKISLLDQNPRPEDRVNITYVIDPRKLKANEKFLARPRGERNAAFGSQSFCSLAILQNYVKDDKIYVQIDVDRCETLPVQLKSRDAKERKQMLDAMRAKTPDVRLHQVRPVTSQSSSAELRV”, “not soluble”. As for “MRNGISPIIIDNTNLHAWEMKPYAVMALENNYEVIFREPDTRWKFNVQELARRNIHGVPKEKIQRMKERYEHNVTFHSVLHAEKPSRANRNQGRNSEPSSGSGYWNTYTELPNRRANGLYSNEGYRRGGHHQGY”, the entry is “not soluble”; as for “MRNWKVTGKYPQLDGTGAVASTHIIIAAEDGAVIPQLIKQDLTSTNDTEIIKAALEEFKKSEYVEIAMGEAVQKVDDLEKISQETAKTAKTAQTAAGLAKVSAERTQRMINLQTIHVLTSGGNVEPDIYKGMLELIEPAKQGEYQAYDVFTVVDESHEDQAVEGNLVFVHVNEPFTYEAQTLKDLESEDKVTVIKYADLVKQD”, “not soluble”; as for “MRPPSELLDIISKLAELDPLVRKGAVRQLSSKQEELSDNELNTYVIERLISGCASARAAVRLGYTTALGTILMTKAGESWELDKILAVADKKMDLAEKTVGTGHAIGHYLILVTYCQTRKLKEAEATKIVEHSKKIRDFAPSLAFSQINLLCSLATKTKESVFQKSVSPAIEMNLEGLSSQFTPENVYLALRLRNSHSTVVAKYAKFVKKDGSIQFSDDQYPKILAALKRCDFATVQVFLPLLIKASVESSGFDKMYLKVLEPWALSSNETKVFDRILTIVTQFFDFGGDVKSIVVVFTKEVLNRMETATRGKGQFRLMSKKVDDFAAFIQSKLSELRDEEAYTALKELEKCGNVDKACGTGLTTALLSNLGKKQISVWIKENLSNQDEVRKIVSAFSNWDEKSRITVLSALLSQKATETSQSVVTSIIDSLFYVKTRAGEFASIQISEKNEEVLRQLVVAVQGEEEVKKAEKSIGKSKLRKKSLQILWYVTRLWSRIAASSVDSAAYDSDSSEILAIAKNEADGNNSLVFVDLLLSILSREQKFHRTPTAFAFVHAIPTLESKDLCHIVETAMMSEAELAGNDDEDMEDEEGMPFDESEIPSGNGDDEASDSDDDDEEEDDDEGNEAVDQELLDKLNAALGDAAPRDSSSDVEMDDLDDEAMQKMDERLAAAFKAIAPKAGKDKKRSAKSVEALKMKIADLLLIAISSKELAEQSKIKLVVPLLKWAKVDAKTHDKVAQKVLELVNIVVKMKFTDVSEKDALQLLKQVLDEAQTTTNILIIDTVARCVTFVLKISSRDGKSMSAGVKTEFQSLFENYLKNVEGKVPSNFVIQPIADLPLLFVDQLGMLIDAGFDEENRIFKRTEILGAIAMIFTKQVLQETNIKGAIIKKIGKLAAAYFQKVVDSDKSELKPRLFGTVLQLILKVTVCIQNDEKHVDALRESLEYVIQKMFEGEVFIQLKKINPTCHHIIGKSIAGAFTSIKKSLDIEN”, “not soluble”. To “MRPTDTSNFAPAEISKRKVRRVKANGRERARMHGLNNALDMLREYIPITTQHQKLSKIETLRLARNYIDALQRMLQTNEQPTPLEYAHTLANGLSQTTTNMLANLLQVQPRQLLPPSQFDIFSDPSHHQLHPSHPPPHSSFSSSSPSSSCSPPQYYYSPTQPSAAPLQGSCDPQYQQMYHQHSHQNTFNYSP” belongs “not soluble”; to “MRPYYIAIVGSGPSAFFAAASLLKAADTTEDLDMAVDMLEMLPTPWGLVRSGVAPDHPKIKSISKQFEKTAEDPRFRFFGNVVVGEHVQPGELSERYDAVIYAVGAQSDRMLNIPGEDLPGSIAAVDFVGWYNAHPHFEQVSPDLSGARAVVIGNGNVALDVARILLTDPDVLARTDIADHALESLRPRGIQEVVIVGRRGPLQAAFTTLELRELADLDGVDVVIDPAELDGITDEDAAAVGKVCKQNIKVLRGYADREPRPGHRRMVFRFLTSPIEIKGKRKVERIVLGRNELVSDGSGRVAAKDTGEREELPAQLVVRSVGYRGVPTPGLPFDDQSGTIPNVGGRINGSPNEYVVGWIKRGPTGVIGTNKKDAQDTVDTLIKNLGNAKEGAECKSFPEDHADQVADWLAARQPKLVTSAHWQVIDAFERAAGEPHGRPRVKLASLAELLRIGLG”, “soluble”; to “MRQKLGNTDQAADLVQDTFIKLLQTRDELFGIKEPRAYLTSIAKNLLIDQVRRKRIEQAYLDGLSQMKYMLDAVASPEDQMQIIQAINQLCKALEGVSEKAQQAFILHYLEGYTHKEIAERLNVSTKMIQKYLASCLIQCYQNRQDMDACI”, “not soluble”.
